Reference: US20120009181A1
Changes are numbered by the printed parent chain.

What was measured:
[1] = target: human folate receptor 1 (FOLR1) (human)
[2] = target: human folate receptor 1 (FOLR1) (human); remark: listed apart in the source
[3] = target: human folate receptor 1 (FOLR1) (human); remark: listed apart in the source

B1: huMov19 (antibody, V domains shown)
VH: QVQLVQSGAEVVKPGASVKISCKASGYTFTGYFMNWVKQSPGQSLEWIGRIHPYDGDTFYNQKFQGKATLTVDKSSNTAHMELLSLTSEDFAVYYCTRYDGSRAMDYWGQGTTVTVSS
VL: DIVLTQSPLSLAVSLGQPAIISCKASQSVSFAGTSLMHWYHQKPGQQPRLLIYRASNLEAGVPDRFSGSGSKTDFTLNISPVEAEDAATYYCQQSREYPYTFGGGTKLEIKR
ADCC, LDH release, percent specific lysis of IGROV-1 cells with human NK effector cells [1]: 30% | EC50 of ADCC activity on IGROV-1 cells [1]: 0.2 ng/mL

B2: huMov19-sulfo-SPDB-DM4 (antibody, V domains shown)
VH: B1 VH
VL: B1 VL with N78T
modifications: maytansinoid DM4 linked to the antibody through the sulfo-SPDB linker, 3.5-4 DM4 per antibody; attachment residues not stated
IC50, nM (n = 3), Ab-based; in vitro cytotoxicity on IGROV-1 cells [2]: 0.3 nM

B3: huMov19-SPDB-DM4 (antibody, V domains shown)
VH: B1 VH
VL: B1 VL with N78T
modifications: maytansinoid DM4 linked to the antibody through the SPDB linker, 3.5-4 DM4 per antibody; attachment residues not stated
IC50, nM (n = 3), Ab-based; in vitro cytotoxicity on JEG-3 cells [2]: 0.2 nM

B4: huMov19-SMCC-DM1 (antibody, V domains shown)
VH: B1 VH
VL: B1 VL
modifications: maytansinoid DM1 linked to the antibody through the SMCC linker, 3.5-4 DM1 per antibody; attachment residues not stated
huAb-smcc-DM1 activity on KB in vitro [3]: 0.1 nM | IC50, nM (n = 3), Ab-based; in vitro cytotoxicity on IGROV-1 cells [2]: 1 nM | IC50, nM (n = 3), Ab-based; in vitro cytotoxicity on JEG-3 cells [2]: 20 nM | IC50, nM (n = 3), Ab-based; in vitro cytotoxicity on KB cells [2]: 0.1 nM
